Article PMC8640787

Biological target: gastrin-releasing peptide receptor (GRPR) with a C-terminal NLuc tag (human) (UniProt P30550)
Test: FRET or BRET

UniProt P30550, sequence (P30550 whole entry): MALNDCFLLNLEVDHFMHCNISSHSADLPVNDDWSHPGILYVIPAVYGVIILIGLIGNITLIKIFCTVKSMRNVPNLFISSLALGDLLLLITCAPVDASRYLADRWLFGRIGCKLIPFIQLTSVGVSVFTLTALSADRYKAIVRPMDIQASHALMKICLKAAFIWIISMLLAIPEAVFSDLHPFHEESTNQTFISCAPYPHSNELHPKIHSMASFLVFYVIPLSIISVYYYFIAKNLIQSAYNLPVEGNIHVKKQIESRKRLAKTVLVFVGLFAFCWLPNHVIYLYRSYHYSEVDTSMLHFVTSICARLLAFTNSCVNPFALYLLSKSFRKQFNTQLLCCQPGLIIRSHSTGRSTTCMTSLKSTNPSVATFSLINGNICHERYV

efficacy of miniGq recruitment with AG-2-BBN-1 (% of AMBA): 57%
Substance: venus-mGq (engineered mini Gαq probe)
